Results published in the supplement of paper PMC12455559.
± gives the standard deviation of the averaged measurements.

Tests used:
[1] = melting temperature (DSF); higher = more thermostable
Procedure, shortened: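 Enzymes made in E. coli C41(DE3) were nickel-bead purified and cut free with SUMO protease before testing. Differential scanning fluorimetry gave each melting temperature. For this, 5 μL 5X Sypro Orange was added to 45 μL enzyme (0 to 0.3 mg/mL) in sealed PCR plates, and a Bio-Rad CFX96 read fluorescence from 25 °C over 250 cycles of 0.3 °C each, ramping at 0.3 °C/s.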

[2] = purified protein yield per well (BCA); higher = higher soluble expression
Procedure, shortened: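 Each candidate enzyme was grown in E. coli C41(DE3) in a 2 mL autoinduction culture (100 µg/mL kanamycin; 2 h at 37 °C, then 40 h at 18 °C) and purified robotically via Ni-charged magnetic beads with SUMO protease cleavage. Purified protein yield per well was assessed using the Pierce Rapid Gold BCA kit. Readings below 25 ug (0.1 mg/mL) are beneath the detection threshold.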

[3] = PET hydrolysis, aromatic products released after 48 h (umol product/mg enzyme); higher = more PET depolymerization activity
Procedure, shortened: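 Reactions ran in sealed plates without shaking for 48 h at 40 or 60 °C. Each held 3.5 mg amorphous PET film or crystalline PET powder, 450 μL buffer and 5 μg (50 μL) of tagless, SUMO-cleaved, nickel-purified candidate enzyme. Buffers were 50 mM NaCitrate at pH 4.5 or 5.5, 50 mM NaPhosphate at pH 6.5 or 7.5, and glycine at pH 8.5. The supernatant's aromatic product, read at 260 and 280 nm against buffer blanks, gives PET hydrolysis activity per mg enzyme.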

[4] = substrate: cryPow, 40 °C, pH 4.5
[5] = substrate: cryPow, 40 °C, pH 5.5
[6] = substrate: cryPow, 40 °C, pH 6.5
[7] = substrate: cryPow, 40 °C, pH 7.5
[8] = substrate: cryPow, 40 °C, pH 8.5
[9] = substrate: cryPow, 60 °C, pH 5.5
[10] = substrate: cryPow, 60 °C, pH 6.5
[11] = substrate: cryPow, 60 °C, pH 7.5
[12] = substrate: cryPow, 60 °C, pH 8.5
[13] = substrate: aFilm, 40 °C, pH 4.5
[14] = substrate: aFilm, 40 °C, pH 5.5
[15] = substrate: aFilm, 40 °C, pH 6.5
[16] = substrate: aFilm, 40 °C, pH 7.5
[17] = substrate: aFilm, 60 °C, pH 4.5
[18] = substrate: aFilm, 60 °C, pH 5.5
[19] = substrate: aFilm, 60 °C, pH 6.5
[20] = substrate: aFilm, 60 °C, pH 7.5
[21] = substrate: cryPow, 60 °C, pH 4.5

Row | Sequence | melting temperature [1] | purified protein yield per well [2] | PET hydrolysis [3, 4] | PET hydrolysis [3, 5] | PET hydrolysis [3, 6] | PET hydrolysis [3, 7] | PET hydrolysis [3, 8] | PET hydrolysis [3, 9] | PET hydrolysis [3, 10] | PET hydrolysis [3, 11] | PET hydrolysis [3, 12] | PET hydrolysis [3, 13] | PET hydrolysis [3, 14] | PET hydrolysis [3, 15] | PET hydrolysis [3, 16] | PET hydrolysis [3, 17] | PET hydrolysis [3, 18] | PET hydrolysis [3, 19] | PET hydrolysis [3, 20] | PET hydrolysis [3, 21]
1 | QSSSCSLMGDVNESNGVDIVDALLIAQAYVGLNPEMEYNPCADVDCSGSMNIVDALLVAQKYVGLISNFPCQISPEPTTEPTSEPVLFIACGSSSAVGSFQADEYFSGGNTHSNSNSVDISRITVNTPPAGLFNNERYGEMSYNIPGLSAGETYTVTLYFAETYLSSSGSRLFNVSINHSDVLTSFDIYDSAGGQNIAVSYSFITTADNSGNILIDFASVTENPKINGIAIMAGIGPTNVPTPEPTPTPENSGFQRGPDPSLASISANRGTFATAELTFPAGNGFGGGFIYYPTDTSLGTWGAVAICPGGSAKFANEETWMGHWLASFGFVVIGIETNNTFDFPESRGTQLLAALDYLVQKSAVKDRVDPDRLMVMGHSMGGGGAFHAALARSSLKTMVALAPWFNTNLTSPSLSNLRMPTMVISARNDTVVTPASCSAIYDKIPTSTQRAWVELAADDHLGFIKPNYTEMRVLIPWMKIFLDSDERYVQFLCPMANSSNISIYKNSCPLVP [TEP098] | 51.7 C | 50.5 µg | < 3 | < 3 | < 3 | < 3 |  |  |  |  |  |  |  |  |  |  |  |  |  | 
2 | QTNPFQRGPAPTEATLEATRGPMATSQFTVSRPSGYRAGTVYYPTNAGGTVGGIVVVPGYTAYQSDINWWGPRLASWGFIVMTIDTNSTLDQPASRSRQQLAALDQLATLSRTSSSPIYNKLDTNRMGVMGWSMGGGGSLISTENRPSLKASIPFAPWNSTENFSSVTVPTLIIACQDDSIAPVYSHASPFYNSMTRNPKQFLEVRGEGHYCANSSNSDKDFLGKKGVAWMKRFMDNDTRFTTFACTNQESSLDVSDFRTARCS [DP032] | 44.5 C | 38 µg |  | < 3 | < 3 | < 3 | < 3 |  |  |  |  |  |  |  |  |  |  |  |  | 
3 | QTNPYQKGPAPTVANLEAARGSFAVSSTSISSLSATGFGGGSLHYPTAAGTYGLIAVAPPYLAQSSSIAWLGPRLASHGFVVVMIDVNSTLDFPESRSRQQLAAIDYAIAQNARRTSPIYGKVDTTRRGVTGHSMGGGASILTARNSPANIKGAFPLTPWSSDKNFSNLQVPTGYLACQDDTVAGNADHSLNFYNRMPASTPKGYYELRGETHFCPQSTTNNPVIGKYLVAWMKRFVDNDTRFSPFLSGALPNADLSSGRFSVLRTSGL [DP075] | 49.3 C | 33 µg |  | < 3 | < 3 | < 3 | < 3 |  |  |  |  |  |  |  |  |  |  |  |  | 
4 | QYQKGPDPTTSSLERAGSFATRTISVSSLAASGFGGGRIYYPTASGSYGVIAVSPGYTGTASTMYFWGERLSSHGFVVIVIETNTLLDQPGSRANQLMAALNYTVSQGNSRTSALYGKVDGNRRGVAGHSMGGGGTLIAAADNASLKAAVPMAPWNLSSLSFRGIRVPTMIFGCQSDAIAPVNTHAVPFYNAIPSSTKKGYVEMRLDDHFCVMNGGGHYETLGKLGISWFKRFIDEDTRYSKFLCGTEYNATVRSTEVSDSKNNCPY [DP039] | 47.8 C | 57 µg |  | < 3 | 3 | 4 | 3 | < 3 | < 3 | < 3 | < 3 |  |  |  |  |  |  |  |  | 
5 | QYQKGPDPTVAGLERDGTFAIRTTTVSRLSASGFGGGTIYYPTATGSYGVVAVSPGFTAYQSSISWIGSRLASHGFVVITIDTNTTSDQPDSRARQLKAALDKVVSLASSRTNVLYGKVDSSRLAVAGHSMGGGGSLAAARDYPSLKASVPLAPWHTTKSFSTVRVPTLIVGADGDTVASVTSHSIPFYTSIPSSTPKGYLELNNEDHFFPQDSGEYGLVGKYMISWFKRFVDSDTRYSPFLCGAPHQTQIANTLRVSDSRTNCPY [DP038] | 56.2 C | 54 µg |  | 6 | 55 | 59 | 54 | < 3 | < 3 | < 3 | < 3 |  |  |  |  |  |  |  |  | 
6 | QYQKGPDPTVSALERTGSFATRTTTVSRTSASGFGGGTIYYPTASGSYGAIAISPGFTAYQSSISWMGTRLASHGFVVITIDTITTSDQPDSRGRQLKAALDKVVSLSRSSSSPIYNKVDTTRLAVAGHSMGGGGTLAAARDYPSLKAAVPLAPWHTTKSWSRVTVPTLIIGGSTDTIASVGLHSIPFYTSLPSSTNKAYMELSGEGHFFPQTSSNYPLVGRYMISWFKRFVDGDSRYSPFLCGAQHQADLGLFSDISDYRENCPY [ESM169] | 61.3 C | 219 µg | < 3 | 15 ± 2.8 | 32.5 ± 0.71 | 57 ± 11 |  | 9 | 24.5 ± 2.1 | 29 ± 1.4 |  | < 3 | 6 ± 1.4 | 10.5 ± 0.71 | 18.5 ± 0.71 | < 3 | < 3 | 6.5 ± 0.71 | 6 ± 1.4 | < 3
7 | RPAAPADSPYQRGPDPTVSSVAAQRGTFATAELTVPPGNGFNGGKIYYPTDTSQGTWAAVAAVPGYTAKWAAEGAWMGPWLASFGFVVIGIDTNSPNDYDTARGTQLLAALDYLTQRSPVRDRVDPGRLGVIGHSMGGGGAINAAERRPSLKAALPLAPFSPSQNLSTLRVPTMIMGARDDGTVTPSYLNGLYGGMPATTPSAYIELTSGGHGFPTWGNSNVTRRTIPWLKIFLDEDTRYTQFLCPSLPDRTGISRSQVTCGSVPGDGTTPPPATGRQVVGAASGRCLDVPGSSQANGTQLQLWDCLDQAGQKWARTDAGELRVLGGKCLDAEASGTAPGTRAVVWDCHGGTNQRWNVTPDGTITSAQSGLCLDAYNAGTANGTRTVLWTCNGGSNQRWTWR [TEP102] | 60.4 C | 252 µg | 5.5 ± 0.71 | 13 ± 2.8 | 25.5 ± 0.71 | 26 ± 1.4 |  | < 3 | < 3 | < 3 |  | < 3 | < 3 | < 3 | < 3 | < 3 | < 3 | < 3 | < 3 | < 3
8 | RPASAQDNPYERGPAPTVSSVAAQRGTFATAELTVPPGNGFNGGKIYYPTDTSLGTWGAVAAVPGYTAKWAAEGAWMGPWLASFGFVVIGIDTNSPNDYDTARGTQLLAALDYLTQKSAVRDRVDPNRLGVIGHSMGGGGAISAAVRRPSLKAALPLAPFSPSQNLSTLRVPTVIMGARDDGTVTPSYLDGLYGGMPAGTQSAFIELSSGGHGFPTWGNSNVTRRMIPWLKIFLDNDTRYTQFLCPSLADTSGVSRSKLKCPYVPPGGTTPPPPSGGPIVGAASGRCLEVPNSSQTNGTQVQLWDCLDRAGQKWTRTAAGELRVYGTKCLDAEASGTSPGTRVVIWDCHGGQNQQWNVNSNGTITSARSGLCLDAYNAGTGNGTQGVLWNCNGGANQRWALG [TEP024] | 61 C | 368 µg | < 3 | 4.5 ± 0.71 | 11.5 ± 2.1 | 14.5 ± 0.71 |  | < 3 | < 3 | < 3 |  | < 3 | < 3 | < 3 | < 3 | < 3 | < 3 | < 3 | < 3 | < 3
9 | RPASAQDNPYERGPDPTVSSVAAQRGTFATAEVTVPPGNGFNGGKIYYPTDTSKGTWGAVAAVPGYTAKWAAEGAWMGPWLASFGFVVIGIDTNSPNDYDTARGTQLLAALDYLTQKSPVRDRVDPNRLGVIGHSMGGGGAISAAERRPSLKAALPLAPFSPSQNLSSLRVPTMIMGARDDGTVTPSYLNGLYAGMPAATPSAYIELTSGGHGFPTWGNSNVTRRTIPWLKIFLDNDTRYTQLLCPSPADRTGVSRSQVKCAYVPGGGTTPPPPSSGQIVGAASARCLDVPNSSQTNGTQLQLWDCLDQTSQKWARTDAGELRVYGNKCLDAEASGTSAGTRAIIWDCHGGQNQRWNVNANGTITSARSGLCLDANNAGTANGTQAILWTCNGGSNQRWTLR [TEP097] | 64.6 C | 270 µg | 8 | 13 ± 1.4 | 31 ± 7.1 | 30.5 ± 2.1 |  | 4.5 ± 0.71 | 4.5 ± 0.71 | 2 ± 2.8 |  | < 3 | < 3 | < 3 | < 3 | < 3 | < 3 | < 3 | < 3 | < 3
10 | SAQVTRQAAGSYARGPAPTLAGIRAALGPFAYSTVTVTAAQAGGAFGGGTIYYPDDTSQGTFGGVAAVPGYQSAEKAVAWLGPRLASQGFVVITIATNGLTDQPTARGKQLLGALDYLTAQSPAAVRQRLDPNRLAVTGHSMGGGGTLYAAWTRPSLKAAVPLAPWHTIKNWSGITVPTLVQGGTQDTTAQVGTFAEPIYQSLTGARERAYAEIADAAHGTFVRENPLIGALEVAWLKRFVDDDGRYEQFLCPAPADSELTEYRDSCPSS [DP009] | 46.9 C | 165 µg |  | 4 | 5 | 6 | 10 | < 3 | < 3 | < 3 | < 3 |  |  |  |  |  |  |  |  | 
11 | SNPAPDTGSGDGSSSQYQIGPDPTVSFLEASSGPFSVRTSNVSSLVSGFGGGTIHYPTGVNRPMAAIVVIPGFVSAESSIDWWGPKLASYGFVVMTIGTNSGFDQPPSRARQINNALDYLVAQNTNSRSPVNGMIDTNRLGAMGWSMGGGGTLRVAEEGRIKAAIPLAPWDTTSFRSNRTPTLIFACGSDSIAPVRTHASPFYNQIPTSTPKIFIEINRGNHYCANGGNSNNATLGRLGVAWMKRFLDEDRRYSQFLCGPRHTSDRNISESRDTCNF [ESM186] | 53.8 C | 43 µg | < 3 | < 3 | 3 | 13 |  |  |  |  |  |  |  |  |  |  |  |  |  | 
